Like-named read-outs stand apart in the source and are kept apart here.
B1: Ws0279 (natural protein)
chain: QKSTLNEIIKRGELRVGLEPGYLPFEMKDKKGNVIGFDVDLAREMAKAMGVKLKLVPTSWDGLIPGLVTEKFDIIISGMTISQERNLRVNFVEPYIVVGQSLLVKKGLEKGVKSYKDLDKPELTLVTKFGVSAEYAAKRLFKNAKLKTYDTEAEAVQEVLNGKADMFIFDLPFNVAFMAQKGQGYLVHLDTSLTYEPLGWAIKKGDPDFLNWLNHFLAQIKHDGSYDELYERWFVL
B2: PaCDTΔC (C-terminal-truncated PaCDT) (enzyme, Pseudomonas aeruginosa, UniProt Q01269 26-259, looked up)
chain: QESRLDRILESGVLRVATTGDYKPFSYRTEEGGYAGFDVDMAQRLAESLGAKLVVVPTSWPNLMRDFADDRFDIAMSGISINLERQRQAYFSIPYLRDGKTPITLCSEEARFQTLEQIDQPGVTAIVNPGGTNEKFARANLKKARILVHPDNVTIFQQIVDGKADLMMTDAIEARLQSRLHPELCAVHPQQPFDFAEKAYLLPRDEAFKRYVDQWLHIAEQSGLLRQRMEHWLE
B3: Cyclohexadienyl dehydratase from Pseudomonas aeruginosa (PaCDT) (enzyme, UniProt Q01269 26-268, looked up)
chain: QESRLDRILESGVLRVATTGDYKPFSYRTEEGGYAGFDVDMAQRLAESLGAKLVVVPTSWPNLMRDFADDRFDIAMSGISINLERQRQAYFSIPYLRDGKTPITLCSEEARFQTLEQIDQPGVTAIVNPGGTNEKFARANLKKARILVHPDNVTIFQQIVDGKADLMMTDAIEARLQSRLHPELCAVHPQQPFDFAEKAYLLPRDEAFKRYVDQWLHIAEQSGLLRQRMEHWLEYRWPTAHGK

Experiments:
AncCDT‐5 (A5) = assay: discontinuous colorimetric assay of phenylpyruvate formation; format: biochemical, synthetic construct; settings: 25°C, 50 mM Na2HPO4 substrate buffer, 100 nM enzyme
[1] = target: the molecule itself
SEC-MALS = target: the molecule itself; assay: SEC-MALS

Molecule | stoichiometry N (SEC-MALS) | other results
O=C(O)C(=O)CC1(C(=O)O)C=CC(O)C=C1 (stereo not shown) [prephenate] |  | Km (AncCDT‐5 (A5)): 81.2 ± 26.3 µM
B1 |  | stoichiometry N [1]: 3
B2 | 3 | 
B3 | 3 | 

— article PMC9703590 (Protein Science : A Publication of the Protein Society, 2022)
